“And” between values parts separate entries of the source, which are not always exact repeats. Equal values may be shown once. Read-outs that look alike come from different tables or passages of the source. Bridges are numbered along the chain shown (N, C = ends). Where no end group is shown, it is not given here.
Legend:
plasmin [1] = biological target: T1, plasmin (Homo sapiens, UniProt P00747); assay: Inhibition of plasmin hydrolysis of succinyl-Ala-Phe-Lys-(F3Ac)AMC, tight-binding fit (Ki used as KD); format: biochemical
Description: A second appropriate method of measuring KD is to measure the inhibitory activity against the enzyme. […] Here, we use the measured Ki as a direct measure of KD.
Inhibition of hydrolysis of succinyl-Ala-Phe-Lys-(F3Ac)AMC (a methyl coumarin) (Sigma Chemical, St. Louis, Mo.) by plasmin at 2.5×10^−8 M with varying amount of inhibitor were fit to the standard form for a tight-binding […] by least-squares.

plasmin [2] = biological target: T1, plasmin; assay: Binding of display phage (KuDom on M13 gIIIp) to plasmin beads; conditions: in words
plasmin [3] = biological target: T1, plasmin; conditions: cited from earlier work; for Kd: Table 4, plasmin, read-out: Affinity KD

T1 sequence (P00747 581-810 limits assumed): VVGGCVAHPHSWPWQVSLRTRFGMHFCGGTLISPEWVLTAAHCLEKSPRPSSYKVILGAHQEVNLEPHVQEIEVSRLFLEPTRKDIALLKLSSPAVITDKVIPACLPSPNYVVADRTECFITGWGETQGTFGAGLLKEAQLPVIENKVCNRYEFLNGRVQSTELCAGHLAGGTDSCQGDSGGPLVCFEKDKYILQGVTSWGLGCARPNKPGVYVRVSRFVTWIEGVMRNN
T1 sequence (P00747 97-580 partner limits assumed): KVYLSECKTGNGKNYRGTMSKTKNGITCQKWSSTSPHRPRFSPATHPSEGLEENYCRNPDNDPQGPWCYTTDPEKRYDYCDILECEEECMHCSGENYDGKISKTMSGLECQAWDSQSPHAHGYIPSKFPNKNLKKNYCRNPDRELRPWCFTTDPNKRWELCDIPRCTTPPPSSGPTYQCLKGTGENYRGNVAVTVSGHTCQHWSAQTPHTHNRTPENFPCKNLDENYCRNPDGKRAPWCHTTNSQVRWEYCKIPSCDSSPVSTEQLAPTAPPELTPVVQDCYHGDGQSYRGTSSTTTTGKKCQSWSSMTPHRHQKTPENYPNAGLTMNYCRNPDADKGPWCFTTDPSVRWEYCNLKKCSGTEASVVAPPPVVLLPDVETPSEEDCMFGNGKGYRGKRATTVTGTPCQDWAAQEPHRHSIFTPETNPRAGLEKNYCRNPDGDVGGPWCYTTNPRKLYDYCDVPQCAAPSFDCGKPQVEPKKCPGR

MHSFCAFKAETGPCRARFDRWFFNIFTRQCEEFIYGGCEGNQNRFESLEECKKMCTRD (disulfide 5-55, 14-38, 30-51) [SPI11]
Kd (plasmin [1]; Affinity KD): 0.088 nM | Ki (plasmin [1]; Ki for plasmin): 0.088 nM and ~0.088 nM | Kd (plasmin [1]; affinity for plasmin): < 0.1 nM

SPI08: LACI-K1 derivative selected for plasmin binding, SEQ ID NO. 42 (MHSFCAFKADGGPCRARFERFFFNIFTRQCEEFIYGGCEGNQNRFESLEECKKMCTRD; Synthetically generated peptide)
binding of clonally pure phage compared to BPTI display phage (plasmin [2]): superior to BPTI phage

MHSFCAFKADGGPCKGKFPRFFFNIFTRQCEEFIYGGCEGNQNRFESLEECKKMCTRD (disulfide 5-55, 14-38, 30-51) [SPI22]
Kd (plasmin [1]; Affinity KD): > 2 nM

Human APP-I: human Kunitz domain APP-I, SEQ ID NO. 39 (VREVCSEQAETGPCRAMISRWYFDVTEGKCAPFFYGGCGGNRNNFDTEEYCMAVCGSA; listed as Homo sapiens)
Ki (plasmin [3]; AUER88, SCHN86, DENN94a): 225 nM | Kd (plasmin [3]; KIDO88): 0.075 nM | Kd (plasmin [3]; literature values (APP-I: DENN94a)): 225 nM

MHSFCAFKAETGPCRGKFDRWFFNIFTRQCESFHYGGCKGNQNRFESLEECKKMCTRD (disulfide 5-55, 14-38, 30-51) [SPI43]
Ki (plasmin [1]; Ki for plasmin): > 4 nM

SPI15: LACI-K1 derivative selected for plasmin binding, SEQ ID NO. 41 (Table 6: 90) (MHSFCAFKAESGPCRARFDRWFFNIFTRQCEEFIYGGCEGNQNRFESLEECKKMCTRD; Synthetically generated peptide)
binding of clonally pure phage compared to BPTI display phage (plasmin [2]): superior to BPTI phage

MHSFCAFKADDGPCKARFERFFFNIFTRQCEQFTYGGCGGNQNRFESLEECKKMCTRD (disulfide 5-55, 14-38, 30-51) [NS4]
Ki (plasmin [1]; Ki for plasmin, 150 mM salt): ~2 nM

QS4: LACI-K1 derivative that binds human plasmin, SEQ ID NO. 4 (MHSFCAFKADDGPCKARFERFFFNIFTRQCEQFYYGGCDGNQNRFESLEECKKMCTRD; Synthetically generated peptide)
Ki (plasmin [1]; 150 mM salt, read-out: Ki for plasmin): ~2 nM | Kd (plasmin [1]; Table 4, plasmin, read-out: Affinity KD): 2 nM | potency class for plasmin below the rank order of Table 8 (plasmin [1]; class words wrapped over r53-r54: Highly Superior / very potent / potent, order SPI11<BPTI<SPI23=SPI51<SPI47<QS4<SPI22<SPI54<SPI43): potent

MHSFCAFKADSGPCRARFDRWFFNIFTRQCTRFPYGGCGGNQNRFESLEECKKMCTRD (disulfide 5-55, 14-38, 30-51) [SPI54]
Ki (plasmin [1]; Ki for plasmin, 150 mM salt): > 4 nM

Source: US7919462B2, “Inhibitors of human plasmin derived from the Kunitz domains” (Dyax Corp., priority 1994, dated 2011)
